Assay results: article PMC8655018 (Nature Communications, 2021)

Assays:
[1] = target: β-barrel assembly machinery (BAM), five components BamA-E, inserted in nanodiscs (E. coli, UniProt P0A940 21-810; P77774 20-392; P0A903 25-344; P0AC02 20-245; P0A937 20-113); experiment: cryo-EM structure; MBP-EspP (3.6 μM, from urea) folded in vitro overnight into BAM nanodiscs (1.8 μM) with SurA (25.2 μM) in 1x TBS with 1 M urea, then SEC (Superdex 200 Increase); 7.0 Å map; conditions: both partners purified
[2] = target: BamA (subunit of E. coli BAM) (E. coli, UniProt P0A940 21-810); experiment: as above; conditions: both partners purified

B1: MBP-EspP (residues 748–1300 of EspP) with an N-terminal 6xHis tag (domain or fragment)
chain: SGMFSTSDISISGNLSMTGNPDKDNKFEPSIYLNDASYLLTDDSARLVAKNKASVVGDIHSTKSASIMFGHDESDLSQLSDRTSKGLALGLLGGFDVSYRGSVNAPSASATMNNTWWQLTGDSALKTLKSTNSMVYFTDSANNKKFHTLTVDELATSNSAYAMRTNLSESDKLEVKKHLSGENNILLVDFLQKPTPEKQLNIELVSAPKDTNENVFKASKQTIGFSDVTPVITTRETDDKITWSLTGYNTVANKEATRNAAALFSVDYKAFLNEVNNLNKRMGDLRDINGEAGAWARIMSGTGSASGGFSDNYTHVQVGVDKKHELDGLDLFTGFTVTHTDSSASADVFSGKTKSVGAGLYASAMFDSGAYIDLIGKYVHHDNEYTATFAGLGTRDYSTHSWYAGAEAGYRYHVTEDAWIEPQAELVYGSVSGKQFAWKDQGMHLSMKDKDYNPLIGRTGVDVGKSFSGKDWKVTARAGLGYQFDLLANGETVLRDASGEKRIKGEKDSRMLMSVGLNAEIRDNVRFGLEFEKSAFGKYNVDNAVNANFRYSF
notes: also called MBP-EspP substrate
binding result [1]: binds | binding result [2]: binds
